Here are results for one molecule from publication PMC6688830, “A Ubiquitin-Binding Domain that Binds a Structural Fold Distinct from that of Ubiquitin” (Structure(London, England:1993), 2019).

Details in all cases: both partners purified
Assay [1] concerns the target T1, Ubiquitin (UniProt P0CG48 1-76).
T1 construct: ubiquitin, monomeric, the cut product of a ubiquitin precursor; also called mono-Ub; monomeric ubiquitin; source: bought: Boston Biochem (purified recombinant)
Kind of assay: ITC; MicroCal ITC200, 10°C; 120 μM SMARCAD1 CUE1 or CUE1,2 in the cell, 9.8 mM mono-Ub in the syringe; 10 mM Tris-HCl pH 7.9, 100 mM NaCl, 5 mM β-ME; One set of sites model. Background: Isothermal titration calorimetry measures the heat released or taken up as one component is titrated into another.

In assay [2] the target is T2, KAP1 S33-K434 V380A (human, UniProt Q13263 33-434, V380A).
T2 construct: KAP1 (TRIM28), human, UniProt Q13263, residues S33-K434 (RBCC domain); source: E. coli BL-21 CodonPlus (DE3)-RP, purified (Ni-NTA, Ulp1, Mono Q)
As to the kind of experiment: co-IP; purified SMARCAD1 fragments (FLAG-CUE1,2, FLAG-CUE1) and KAP1 RBCC, 9.6μg each in 240μL, 4°C 1 hour; anti-FLAG M2 affinity gel 3 hours.

Assay [3] concerns the target T3, KAP1 S33-K434 L376A (human, UniProt Q13263 33-434, L376A).
T3 construct: KAP1 (TRIM28), human, UniProt Q13263, residues S33-K434 (RBCC domain); source: E. coli BL-21 CodonPlus (DE3)-RP, purified (Ni-NTA, Ulp1, Mono Q)
Described as above.

Assay [4] concerns the target T4, KAP1 S33-K434 I379A (human, UniProt Q13263 33-434, I379A).
T4 construct: KAP1 (TRIM28), human, UniProt Q13263, residues S33-K434 (RBCC domain); source: E. coli BL-21 CodonPlus (DE3)-RP, purified (Ni-NTA, Ulp1, Mono Q)
The description is as above.

Assay [5] concerns the target T5, KAP1 S33-K434 (human, UniProt Q13263 33-434).
T5 construct: KAP1 (TRIM28), human, UniProt Q13263, residues S33-K434 (RBCC domain); The crystal structures of shorter RBCC constructs show an antiparallel homodimer; also called KAP1 RBCC (S33-K434); KAP1 RBCC; source: E. coli BL-21 CodonPlus (DE3)-RP, purified (Ni-NTA, Ulp1, Mono Q)
Kind of assay: ITC; MicroCal ITC200, 20°C; KAP1 RBCC (9-18 μM) in the cell, SMARCAD1 CUE1 or CUE1,2 (90-300 μM) in the syringe; 10 mM Tris-HCl pH 7.9, 100 mM NaCl, 5 mM β-ME; One set of sites model.

T2 sequence (Q13263 33-434 V380A): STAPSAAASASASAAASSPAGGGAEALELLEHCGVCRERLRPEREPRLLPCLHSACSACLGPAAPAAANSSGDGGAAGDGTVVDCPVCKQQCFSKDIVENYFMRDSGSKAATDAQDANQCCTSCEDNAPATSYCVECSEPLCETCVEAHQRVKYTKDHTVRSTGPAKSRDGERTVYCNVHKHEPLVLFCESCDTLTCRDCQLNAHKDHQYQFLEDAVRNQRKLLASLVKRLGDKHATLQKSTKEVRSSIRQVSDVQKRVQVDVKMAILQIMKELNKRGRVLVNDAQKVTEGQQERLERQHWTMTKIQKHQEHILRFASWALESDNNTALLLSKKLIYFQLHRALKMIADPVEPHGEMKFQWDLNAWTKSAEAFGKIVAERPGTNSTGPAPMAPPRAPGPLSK
T3 sequence (Q13263 33-434 L376A): as the sequence (Q13263 33-434 V380A) above, with L344A, A348V counted along it
T5 sequence (Q13263 33-434): as the sequence (Q13263 33-434 V380A) above, with A348V counted along it
T4 sequence (Q13263 33-434 I379A): as the sequence (Q13263 33-434 V380A) above, with I347A, A348V counted along it

B1: FLAG-CUE1,2 (WT) (domain or fragment, human, UniProt Q9H4L7 95-347, looked up)
chain: SSDSEDVVSPNCSNTVQEKTFNKDTVIIVSEPSEDEESQGLPTMARRNDDISELEDLSELEDLKDAKLQTLKELFPQRSDNDLLKLIESTSTMDGAIAAALLMFGDAGGGPRKRKLSSSSEPYEEDEFNDDQSIKKTRLDHGEESNESAESSSNWEKQESIVLKLQKEFPNFDKQELREVLKEHEWMYTEALESLKVFAEDQDMQYVSQSEVPNGKEVSSRSQNYPKNATKTKLKQKFSMKAQNGFNKKRKKN
notes: SMARCAD1, human, UniProt Q9H4L7, residues S95-N347 (both CUE domains); also called SMARCAD1 CUE1,2 (S95-N347); wild-type CUE1,2; source: E. coli BL-21 CodonPlus (DE3)-RIL, purified (Ni-NTA, Ulp1, Mono Q if required)
Broadly, the Kd is the concentration at which binding is half-saturated. On to B1, for which the Kd in assay [1] was around 389 µM; in assay [5], around 210 nM. Moreover, the binding result in assay [2], in assay [3] and in assay [4] was “binds” in each case.
